# Source: patent publication US20220017612A1
# Experiments:
# [1] = molecular target: LAP-TGFβ1 on U937 cells (Homo sapiens) (UniProt P01137); assay: flow cytometry dot plot against GARP, U937 cells, Alexa 647 antibody at 10 ug/ml
# [2] = molecular target: human-chicken LAP-TGFβ1 chimera #3 on HT1080 cells (human/chicken chimera) (UniProt P01137); assay: flow cytometry, transduced HT1080 cells
# [3] = molecular target: human-chicken LAP-TGFβ1 chimera #6 on HT1080 cells (human/chicken chimera) (UniProt P01137); assay: flow cytometry, transduced HT1080 cells
# [4] = molecular target: human-chicken LAP-TGFβ1 chimera #2.1 on HT1080 cells (human/chicken chimera) (UniProt P01137); assay: flow cytometry, transduced HT1080 cells
# [5] = molecular target: human-chicken LAP-TGFβ1 chimera #5 on HT1080 cells (human/chicken chimera); assay: flow cytometry, transduced HT1080 cells
# [6] = molecular target: human-chicken LAP-TGFβ1 chimera #2 on HT1080 cells (human/chicken chimera); assay: flow cytometry, transduced HT1080 cells
# [7] = molecular target: human-chicken LAP-TGFβ1 chimera #1 on HT1080 cells (human/chicken chimera); assay: flow cytometry, transduced HT1080 cells
# [8] = molecular target: chicken LAP-TGFβ1 on HT1080 cells (chicken) (UniProt P09531); assay: flow cytometry, transduced HT1080 cells
# [9] = molecular target: human-chicken LAP-TGFβ1 chimera #2.2 on HT1080 cells (human/chicken chimera) (UniProt P01137); assay: flow cytometry, transduced HT1080 cells
# [10] = molecular target: human-chicken LAP-TGFβ1 chimera #4 on HT1080 cells (human/chicken chimera) (UniProt P01137); assay: flow cytometry, transduced HT1080 cells
# [11] = molecular target: human-chicken LAP-TGFβ1 chimera #1.2 on HT1080 cells (human/chicken chimera) (UniProt P01137); assay: flow cytometry, transduced HT1080 cells
# [12] = molecular target: human-chicken LAP-TGFβ1 chimera #1.3 on HT1080 cells (human/chicken chimera) (UniProt P01137); assay: flow cytometry, transduced HT1080 cells
# [13] = molecular target: human-chicken LAP-TGFβ1 chimera #7 on HT1080 cells (human/chicken chimera) (UniProt P01137); assay: flow cytometry, transduced HT1080 cells
# [14] = molecular target: human LAP-TGFβ1 overexpressed on cells (human) (UniProt P01137); assay: flow cytometry, transduced HT1080 cells
# Chain of human LAP-TGFβ1 overexpressed on cells (human) (P01137 30-390): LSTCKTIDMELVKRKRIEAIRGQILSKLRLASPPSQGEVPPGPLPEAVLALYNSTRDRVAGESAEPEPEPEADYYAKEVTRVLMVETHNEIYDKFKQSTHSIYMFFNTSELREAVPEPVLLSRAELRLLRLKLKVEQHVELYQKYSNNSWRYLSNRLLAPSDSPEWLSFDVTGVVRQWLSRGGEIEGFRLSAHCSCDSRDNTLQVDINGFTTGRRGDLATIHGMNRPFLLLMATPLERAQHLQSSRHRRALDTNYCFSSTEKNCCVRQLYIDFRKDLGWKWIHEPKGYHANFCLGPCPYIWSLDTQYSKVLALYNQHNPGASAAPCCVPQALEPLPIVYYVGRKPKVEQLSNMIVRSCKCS
# Chain of LAP-TGFβ1 on U937 cells (Homo sapiens) (P01137 30-390 limits assumed): as the sequence (P01137 30-390) above
# Chain of human-chicken LAP-TGFβ1 chimera #2.1 on HT1080 cells (human/chicken chimera) (P01137 other isoform, or with tags, fused parts or gaps mutant): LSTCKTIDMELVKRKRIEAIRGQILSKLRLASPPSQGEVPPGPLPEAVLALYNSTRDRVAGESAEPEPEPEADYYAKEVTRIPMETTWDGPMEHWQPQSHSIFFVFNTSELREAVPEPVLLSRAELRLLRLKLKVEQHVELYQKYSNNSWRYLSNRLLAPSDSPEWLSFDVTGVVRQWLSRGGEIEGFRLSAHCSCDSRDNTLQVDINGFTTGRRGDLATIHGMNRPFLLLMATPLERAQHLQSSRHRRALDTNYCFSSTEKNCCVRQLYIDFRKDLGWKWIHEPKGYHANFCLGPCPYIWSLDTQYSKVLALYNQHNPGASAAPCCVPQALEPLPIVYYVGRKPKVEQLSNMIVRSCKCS
# Chain of human-chicken LAP-TGFβ1 chimera #2.2 on HT1080 cells (human/chicken chimera) (P01137 other isoform, or with tags, fused parts or gaps mutant): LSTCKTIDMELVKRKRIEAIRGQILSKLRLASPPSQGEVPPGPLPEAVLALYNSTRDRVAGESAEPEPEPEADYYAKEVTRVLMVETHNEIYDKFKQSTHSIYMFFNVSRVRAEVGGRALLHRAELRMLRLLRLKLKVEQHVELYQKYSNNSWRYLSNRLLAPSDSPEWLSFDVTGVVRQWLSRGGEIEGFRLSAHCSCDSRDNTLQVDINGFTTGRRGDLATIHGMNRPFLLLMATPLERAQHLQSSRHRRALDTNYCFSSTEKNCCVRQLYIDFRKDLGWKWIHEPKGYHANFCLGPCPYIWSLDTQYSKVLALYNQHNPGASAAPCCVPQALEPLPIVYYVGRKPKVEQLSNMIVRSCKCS
# Chain of human-chicken LAP-TGFβ1 chimera #7 on HT1080 cells (human/chicken chimera) (P01137 other isoform, or with tags, fused parts or gaps mutant): as the sequence (P01137 30-390) above, with A331T, E333D, V338I, K344N, P345V, K346R, I354V, S357A counted along it
# Chain of human-chicken LAP-TGFβ1 chimera #1.3 on HT1080 cells (human/chicken chimera) (P01137 other isoform, or with tags, fused parts or gaps mutant): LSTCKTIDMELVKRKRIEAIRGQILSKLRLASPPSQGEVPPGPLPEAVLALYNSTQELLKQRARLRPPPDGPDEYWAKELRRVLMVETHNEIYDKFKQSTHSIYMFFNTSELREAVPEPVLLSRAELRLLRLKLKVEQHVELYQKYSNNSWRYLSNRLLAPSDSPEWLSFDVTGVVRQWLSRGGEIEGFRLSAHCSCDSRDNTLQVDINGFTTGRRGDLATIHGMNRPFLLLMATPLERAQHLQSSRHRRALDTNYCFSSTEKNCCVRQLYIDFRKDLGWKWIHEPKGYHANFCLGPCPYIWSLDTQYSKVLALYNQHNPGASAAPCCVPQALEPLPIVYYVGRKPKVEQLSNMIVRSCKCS
# Chain of human-chicken LAP-TGFβ1 chimera #5 on HT1080 cells (human/chicken chimera) (chain, as listed by the source mutant limits assumed): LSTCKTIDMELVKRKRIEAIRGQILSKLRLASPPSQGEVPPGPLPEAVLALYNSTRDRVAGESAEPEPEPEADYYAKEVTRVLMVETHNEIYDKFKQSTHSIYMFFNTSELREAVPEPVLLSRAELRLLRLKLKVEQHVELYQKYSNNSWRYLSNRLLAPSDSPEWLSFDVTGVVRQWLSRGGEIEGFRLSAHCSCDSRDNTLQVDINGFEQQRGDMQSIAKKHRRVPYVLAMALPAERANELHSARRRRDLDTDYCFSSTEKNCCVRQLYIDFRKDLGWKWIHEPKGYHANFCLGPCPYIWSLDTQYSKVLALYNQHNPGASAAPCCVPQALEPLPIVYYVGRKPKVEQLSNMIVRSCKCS
# Chain of human-chicken LAP-TGFβ1 chimera #3 on HT1080 cells (human/chicken chimera) (P01137 other isoform, or with tags, fused parts or gaps mutant): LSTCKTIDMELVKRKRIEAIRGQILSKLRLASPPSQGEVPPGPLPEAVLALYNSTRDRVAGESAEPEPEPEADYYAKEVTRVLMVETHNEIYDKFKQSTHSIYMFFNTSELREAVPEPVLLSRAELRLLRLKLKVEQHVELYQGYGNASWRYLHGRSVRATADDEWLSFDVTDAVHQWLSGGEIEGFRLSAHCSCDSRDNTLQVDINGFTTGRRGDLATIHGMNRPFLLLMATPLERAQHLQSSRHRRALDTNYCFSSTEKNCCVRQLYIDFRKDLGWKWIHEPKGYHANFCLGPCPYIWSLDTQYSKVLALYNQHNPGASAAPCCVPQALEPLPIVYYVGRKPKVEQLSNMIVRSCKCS
# Chain of human-chicken LAP-TGFβ1 chimera #2 on HT1080 cells (human/chicken chimera) (chain, as listed by the source mutant limits assumed): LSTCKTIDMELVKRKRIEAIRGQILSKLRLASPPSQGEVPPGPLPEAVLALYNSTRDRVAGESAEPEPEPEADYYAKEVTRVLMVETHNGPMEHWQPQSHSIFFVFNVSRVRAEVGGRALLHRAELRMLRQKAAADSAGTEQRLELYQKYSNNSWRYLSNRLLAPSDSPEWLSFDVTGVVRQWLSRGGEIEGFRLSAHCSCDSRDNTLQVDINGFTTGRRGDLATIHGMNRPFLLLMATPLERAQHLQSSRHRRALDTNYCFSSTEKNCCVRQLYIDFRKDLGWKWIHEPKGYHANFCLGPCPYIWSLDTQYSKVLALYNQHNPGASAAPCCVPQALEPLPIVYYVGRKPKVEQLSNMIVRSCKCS
# Chain of human-chicken LAP-TGFβ1 chimera #1 on HT1080 cells (human/chicken chimera) (chain, as listed by the source mutant limits assumed): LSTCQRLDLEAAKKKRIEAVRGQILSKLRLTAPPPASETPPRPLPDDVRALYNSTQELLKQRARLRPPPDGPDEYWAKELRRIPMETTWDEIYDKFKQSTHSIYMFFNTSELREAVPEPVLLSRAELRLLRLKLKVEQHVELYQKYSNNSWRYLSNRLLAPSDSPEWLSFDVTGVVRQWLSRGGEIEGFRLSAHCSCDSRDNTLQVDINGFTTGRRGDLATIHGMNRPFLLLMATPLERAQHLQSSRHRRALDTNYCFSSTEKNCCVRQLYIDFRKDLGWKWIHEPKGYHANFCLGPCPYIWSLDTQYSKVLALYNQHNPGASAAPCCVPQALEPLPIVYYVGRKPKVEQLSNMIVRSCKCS
# Chain of human-chicken LAP-TGFβ1 chimera #1.2 on HT1080 cells (human/chicken chimera) (P01137 other isoform, or with tags, fused parts or gaps mutant): as the sequence (P01137 30-390) above, with A31T, S32A, S35P, Q36A, G37S, V39T, G42R, E46D, A47D, L49R counted along it
# Chain of human-chicken LAP-TGFβ1 chimera #4 on HT1080 cells (human/chicken chimera) (P01137 other isoform, or with tags, fused parts or gaps mutant): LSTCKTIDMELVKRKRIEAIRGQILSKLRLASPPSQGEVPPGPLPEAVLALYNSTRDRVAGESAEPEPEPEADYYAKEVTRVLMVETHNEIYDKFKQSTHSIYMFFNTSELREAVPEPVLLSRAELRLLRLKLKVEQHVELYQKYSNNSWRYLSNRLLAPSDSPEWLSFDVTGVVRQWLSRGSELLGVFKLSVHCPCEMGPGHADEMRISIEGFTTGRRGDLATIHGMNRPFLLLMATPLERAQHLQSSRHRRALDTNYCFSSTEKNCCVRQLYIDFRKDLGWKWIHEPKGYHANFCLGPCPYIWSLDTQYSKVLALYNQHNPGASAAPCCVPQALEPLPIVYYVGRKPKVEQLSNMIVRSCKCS
# Chain of human-chicken LAP-TGFβ1 chimera #6 on HT1080 cells (human/chicken chimera) (P01137 other isoform, or with tags, fused parts or gaps mutant): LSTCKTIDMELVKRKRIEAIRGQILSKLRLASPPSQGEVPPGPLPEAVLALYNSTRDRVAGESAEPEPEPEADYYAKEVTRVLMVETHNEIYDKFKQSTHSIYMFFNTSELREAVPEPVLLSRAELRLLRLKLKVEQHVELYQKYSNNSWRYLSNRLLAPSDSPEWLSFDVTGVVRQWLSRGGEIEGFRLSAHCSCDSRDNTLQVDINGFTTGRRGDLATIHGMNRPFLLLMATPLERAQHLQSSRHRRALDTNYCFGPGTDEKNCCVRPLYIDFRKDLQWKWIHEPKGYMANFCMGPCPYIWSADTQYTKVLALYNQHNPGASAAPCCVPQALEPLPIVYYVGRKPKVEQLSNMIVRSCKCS
"% of cells in Q1 (antibody axis positive, GARP negative) [1]","% of cells in Q2 (antibody axis positive, GARP positive) [1]",% GFP+/APC+ cells [2],% GFP+/APC+ cells [3],% GFP+/APC+ cells [4],% GFP+/APC+ cells [5],% GFP+/APC+ cells [6],% GFP+/APC+ cells [7],% GFP+/APC+ cells [8],% GFP+/APC+ cells [9],% GFP+/APC+ cells [10],% GFP+/APC+ cells [11],% GFP+/APC+ cells [12],% GFP+/APC+ cells [13],% GFP+/APC+ cells [14],Substance
16.2%,0.37%,,,,,,,,,,,,,,Isotype Control (antibody)
,,46.3%,76.7%,79.1%,11.9%,1.5%,7.5%,0.5%,47.2%,56.2%,78.3%,65.2%,0.6%,68.9%,rabbit monoclonal antibody raised against a peptide from the mature cytokine domain (Abcam ab179695)
